This experiment addresses T1, cynomolgus TREM-1 (cTREM-1 protein, SPR analyte of Examples 9 and 11) (cynomolgus monkey).
T1 construct: Soluble analyte; also called cyno TREM1
T1 chain: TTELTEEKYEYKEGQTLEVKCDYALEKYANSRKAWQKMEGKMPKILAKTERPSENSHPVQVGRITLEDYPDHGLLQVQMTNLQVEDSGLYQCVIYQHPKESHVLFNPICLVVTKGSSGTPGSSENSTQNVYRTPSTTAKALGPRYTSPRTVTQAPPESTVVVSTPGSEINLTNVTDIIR
As to the kind of experiment: SPR, mAb captured, cTREM-1 analyte. As to the method:
Binding studies were performed on a ProteOn Analyzer (BioRad) that measures molecular interactions in real time through surface plasmon resonance. Experiments were run at 25° C. and the samples were stored at 15° C. in the sample compartment. The signal (RU, response units) reported by the ProteOn is directly correlated to the mass on the individual sensor chip surfaces in six parallel flow cells. Anti-human Fc monoclonal or anti-murine Fc polyclonal antibody from Biacore human or mouse Fc capture kits were immobilized in horizontal direction onto flow cells of a GLM sensor chip according to the manufacturer's instructions. The final immobilization level of capture antibody was approximately 2600-6000 RU in different experiments. […] The GLM surface was regenerated after each injection cycle of analyte via two 18 s injections of 10 mM Glycine, pH 1.7 and 50 mM NaOH at 100 μl/min. This regeneration step removed the anti-TREM-1 antibody and any bound TREM-1 protein from the immobilized capture antibody surface, and allowed for the subsequent binding of the next interaction sample pair.

In general, Kd refers to the free concentration of one partner at which half of the binding sites on the other are occupied at equilibrium, for simple one-to-one binding. Higher therefore signals lower affinity.

B1: mAb 0121 (antibody, V domains shown)
VH: EVQLVESGGGLVQPGGSLKLSCAASGFTFSTYAMHWVRQASGKGLEWVGRIRTKSSNYATYYAASVKGRFTISRDDSKNTAYLQMNSLKTEDTAVYYCVRDMGQRRQFAYWGQGTLVTVSS
VL: DIVMTQSPDSLAVSLGERATINCRASESVDTFDYSFLHWYQQKPGQPPKLLIYRASNLESGVPDRFSGSGSGTDFTLTISSLQAEDVAVYYCQQSNEDPYTFGQGTKLEIK
notes: recombinant; also called 14F113/14F69 hz variant HC T93V; 14F113 hz variant HC T93V
Consider B1, for which the Kd was 0.94 nM.

For the origin of these results see patent publication US20210253697A1 (Novo Nordisk, published 2021).
